According to patent publication US20190144550A1 (Pfizer, published 2019):

Experiments:
[1] = biological target: T1, 8-histidine tagged recombinant wild-type protein EGFRwt (UniProt P00533 25-645, limits assumed); experiment: SPR, captured by anti-human Fc, 25 C
T1 construct: not shown: 8-histidine tag

[2] = biological target: T2, Monomeric 8-histidine tagged human EGFRvIII extracellular domain (human, UniProt P00533 298-645); experiment: SPR, scFv-Fc captured by anti-human Fc, 37 C
T2 construct: Analyte in all SPR assays; not shown: 8-histidine tag
Method: The scFv fragment was then fused to human IgG1 Fc moiety to facilitate recombinant expression and purification. Affinities of the scFv-Fc fusion proteins were measured at 37° C. on a surface plasmon resonance Biacore™ T200 biosensor equipped with an anti-human Fc coupled CM4 sensor chip (GE Healthcare Inc., Piscataway, N.J.) as described above. scFv-Fc proteins were captured by anti-human Fc. Monomeric 8-histidine tagged human EGFRvIII extracellular domain was then injected as the analyte at 10-fold dilution series starting at 1000 nM.

Binder | binding result [1] | Kd [2] | koff [2] | kon [2]
42G9.HL scFv-Fc protein (Fc fusion, HL: heavy-chain variable domain at the N-terminus; not shown: human IgG1 Fc moiety) QVTLKESGPVLLKPTETLTLTCTVSGFSLSNPRMGVSWIRQPPGKALEWFAHIFSTDEKSLKLSLRSRLTLSKDTSKSQVVLTMTNMAPVDSATYYCARDSSNYEGYFDFWGQGTLVTVSSGGGGSGGGGSGGGGSGGGGSEVVLTQSPATLSVSPGERATLSCRASQSVRSNLAWYQQKSGQAPRLLIYGSTIRATGVPARFSGSGSGTEFTLTISSLQSEDFAVYYCQQYSDWPFTFGPGTKVDIK | no binding (tested: 1000 nM) | 18.8 nM | 0.0011 s⁻¹ | 56000 M⁻¹ s⁻¹
26B9.HL scFv-Fc protein (Fc fusion, HL: heavy-chain variable domain at the N-terminus; not shown: human IgG1 Fc moiety) EVQLVESWGVLVKPGGSLRLSCAASGFIFNNAWMSWVRQAPGKGLEWIGRIKSKSDGGTTDYAAPVKDRFTISRDDSKDTLYLQMNGLKTEDTAVYFCTTAPGGPFDYWGQGTLVTVSSGGGGSGGGGSGGGGSGGGGSDIVLTQSPLSLPVTPGEPASISCRSSQSLLHRDGFNYLDWFLQKPGQSPQLLIYLASSRASGVPDRFSGSDSGTDFTLKISRVEAEDVGVYYCMQALQTPITFGQGTRLEIK | no binding (tested: 1000 nM) | 705 nM | 0.04 s⁻¹ | 57000 M⁻¹ s⁻¹
20E12.HL scFv-Fc protein (Fc fusion, HL: heavy-chain variable domain at the N-terminus; not shown: human IgG1 Fc moiety) EVNLVESGGGLVKPGGSLRLSCEASGFTFSYAWMSWVRQAPGKGLEWVGRIKSIADGGATDYAAPVRNRFTISRDDSRNTLYLEMHSLKTEDTAVYYCTTIPGNDAFDMWGQGTMVTVSSGGGGSGGGGSGGGGSGGGGSDIVLTQSPLSLSVTPGEPASISCRSSQSLLYSNGKNYLDWFLHKPGQSPQLLIYLGSNRASGVPDRFSGSGSGIDFILKISRVEAEDVGVYYCMQAQQTPITFGQGTRLEIK | no binding (tested: 1000 nM) | 894 nM | 0.019 s⁻¹ | 21000 M⁻¹ s⁻¹
32G8.HL scFv-Fc protein (Fc fusion, HL: heavy-chain variable domain at the N-terminus; not shown: human IgG1 Fc moiety) EVNLVESGGGLVKPGGSLRLSCEASGFTFSYAWMSWVRQAPGKGLEWVGRIKSITDGGVIDYAAPVRNRCTISRDDSRNTLYLEMHSLKTEDTAVYYCTTIPGNDDFDMWGQGRMVTVSSGGGGSGGGGSGGGGSGGGGSDIVLTQSPLSLSVTPGEPASISCRSSQSLLYSNGKNYLDWFLHKPGQSPQLLIYLGSNRASGVPDRFSGSGSGIDFILKISRVEAEDVGVYYCMQAQQTPITFGQGTRLEIK | no binding (tested: 1000 nM) | 1490 nM | 0.013 s⁻¹ | 8700 M⁻¹ s⁻¹
20B9.HL scFv-Fc protein (Fc fusion, HL: heavy-chain variable domain at the N-terminus; not shown: human IgG1 Fc moiety) QVTLKESGPVLVKPTETLTLTCTVSGFSLSNARMGVSWIRQPPGKALEWLGHIFSTDEKSYSTSLRGRITISKDTSRGLVVLTLTNMDPVDTATYYCARDSSNYEGYFDFWGPGFLVTVSSGGGGSGGGGSGGGGSGGGGSEIVMTQSPATLSVSPGERATLSCRVSQSIGANLAWYQQKFGQAPRLLIYGASTRATGIPVRFSGGGSGTEFTLTISSLQSEDFAIYSCQQYIYWPFTFGPGTTVDIK | no binding (tested: 1000 nM) | 73.8 nM | 0.0018 s⁻¹ | 24000 M⁻¹ s⁻¹
30D8.LH scFv-Fc protein (Fc fusion, LH: light-chain variable domain at the N-terminus; not shown: human IgG1 Fc moiety) DIVMTQSPLSLPVTPGEPASISCRSSQSLLHNKRNNYLDWFLQKPGQSPQLLIYLASNRASGVPDRFSGGGSGTDFTLKISRVEAEDVGVYYCMQAQQTPITFGQGTRLEIKGGGGSGGGGSGGGGSGGGGSEVQLVESGGGLVKPGGSLRLSCEASGFTFSDAWMSWVRQAPGKGLEWVGRIKSKTDGGTTDYVVPLNGRFIISRDDSRNTLYLQLNNLKTEDTAVYYCTTVPGSYGYWGQGTLVTVSS | no binding (tested: 1000 nM) | 349 nM | 0.038 s⁻¹ | 110000 M⁻¹ s⁻¹
42G9.LH scFv-Fc protein (Fc fusion, LH: light-chain variable domain at the N-terminus; not shown: human IgG1 Fc moiety) EVVLTQSPATLSVSPGERATLSCRASQSVRSNLAWYQQKSGQAPRLLIYGSTIRATGVPARFSGSGSGTEFTLTISSLQSEDFAVYYCQQYSDWPFTFGPGTKVDIKGGGGSGGGGSGGGGSGGGGSQVTLKESGPVLLKPTETLTLTCTVSGFSLSNPRMGVSWIRQPPGKALEWFAHIFSTDEKSLKLSLRSRLTLSKDTSKSQVVLTMTNMAPVDSATYYCARDSSNYEGYFDFWGQGTLVTVSS | no binding (tested: 1000 nM) | 22.1 nM | 0.00088 s⁻¹ | 40000 M⁻¹ s⁻¹

The next lines start with the values.

binding result [1] | Kd [2] | koff [2] | kon [2] | Binder
no binding (tested: 1000 nM) | 82.7 nM | 0.0025 s⁻¹ | 30000 M⁻¹ s⁻¹ | 20B9.LH scFv-Fc protein (Fc fusion, LH: light-chain variable domain at the N-terminus; not shown: human IgG1 Fc moiety) EIVMTQSPATLSVSPGERATLSCRVSQSIGANLAWYQQKFGQAPRLLIYGASTRATGIPVRFSGGGSGTEFTLTISSLQSEDFAIYSCQQYIYWPFTFGPGTTVDIKGGGGSGGGGSGGGGSGGGGSQVTLKESGPVLVKPTETLTLTCTVSGFSLSNARMGVSWIRQPPGKALEWLGHIFSTDEKSYSTSLRGRITISKDTSRGLVVLTLTNMDPVDTATYYCARDSSNYEGYFDFWGPGFLVTVSS
no binding (tested: 1000 nM) | 494 nM | 0.034 s⁻¹ | 69000 M⁻¹ s⁻¹ | 26B9.LH scFv-Fc protein (Fc fusion, LH: light-chain variable domain at the N-terminus; not shown: human IgG1 Fc moiety) DIVLTQSPLSLPVTPGEPASISCRSSQSLLHRDGFNYLDWFLQKPGQSPQLLIYLASSRASGVPDRFSGSDSGTDFTLKISRVEAEDVGVYYCMQALQTPITFGQGTRLEIKGGGGSGGGGSGGGGSGGGGSEVQLVESWGVLVKPGGSLRLSCAASGFIFNNAWMSWVRQAPGKGLEWIGRIKSKSDGGTTDYAAPVKDRFTISRDDSKDTLYLQMNGLKTEDTAVYFCTTAPGGPFDYWGQGTLVTVSS
no binding (tested: 1000 nM) | 29.8 nM | 0.0012 s⁻¹ | 41000 M⁻¹ s⁻¹ | 32A10.LH scFv-Fc protein (Fc fusion, LH: light-chain variable domain at the N-terminus; not shown: human IgG1 Fc moiety) EVVMTQSPATLSVSPGERVTLSCRASQSVSSNFAWYQQRPGQAPRLLLYGATTRATGLPGRFSGSGSGTENILTISSLQSEDFAIYFCQQYKDWPFTFGPGSKVDIKGGGGSGGGGSGGGGSGGGGSQVTLKESGPVLVKPTETLTLTCTVSGFSLSNARMGVSWIRQPPGKALEWLAHIFSTDEKSIRRSLRSRLTLSKDTSKSQVVLTMTNMDPVDTATYFCARDSSNYEGYFDYWGQGTLVTVSS
no binding (tested: 1000 nM) | 136 nM | 0.0065 s⁻¹ | 48000 M⁻¹ s⁻¹ | 14C11.LH scFv-Fc protein (Fc fusion, LH: light-chain variable domain at the N-terminus; not shown: human IgG1 Fc moiety) EIVMTQSPATLSVSPGERATLSCRASQSVSNNLAWYQQKPGQAPRLLIYGASTRATGVPARFSGSDSGTEFSLTISSLQSEDFAVYFCQQYKDWPFTFGPGTKVEIKGGGGSGGGGSGGGGSGGGGSQVTLKESGPVLVKPTETLTLTCTVSGFSLNNARMGVSWIRQPPGKALEWFAHIFSTDEKSFRTSLRSRLTLSKDTSKSQVVLTMTNMDPVDTATYYCARDSSNYEGYFDYWGQGILVTVSS
no binding (tested: 1000 nM) | 932 nM | 0.015 s⁻¹ | 16000 M⁻¹ s⁻¹ | 20E12.LH scFv-Fc protein (Fc fusion, LH: light-chain variable domain at the N-terminus; not shown: human IgG1 Fc moiety) DIVLTQSPLSLSVTPGEPASISCRSSQSLLYSNGKNYLDWFLHKPGQSPQLLIYLGSNRASGVPDRFSGSGSGIDFILKISRVEAEDVGVYYCMQAQQTPITFGQGTRLEIKGGGGSGGGGSGGGGSGGGGSEVNLVESGGGLVKPGGSLRLSCEASGFTFSYAWMSWVRQAPGKGLEWVGRIKSIADGGATDYAAPVRNRFTISRDDSRNTLYLEMHSLKTEDTAVYYCTTIPGNDAFDMWGQGTMVTVSS
no binding (tested: 1000 nM) | 104 nM | 0.0043 s⁻¹ | 42000 M⁻¹ s⁻¹ | 14C11.HL scFv-Fc protein (Fc fusion, HL: heavy-chain variable domain at the N-terminus; not shown: human IgG1 Fc moiety) QVTLKESGPVLVKPTETLTLTCTVSGFSLNNARMGVSWIRQPPGKALEWFAHIFSTDEKSFRTSLRSRLTLSKDTSKSQVVLTMTNMDPVDTATYYCARDSSNYEGYFDYWGQGILVTVSSGGGGSGGGGSGGGGSGGGGSEIVMTQSPATLSVSPGERATLSCRASQSVSNNLAWYQQKPGQAPRLLIYGASTRATGVPARFSGSDSGTEFSLTISSLQSEDFAVYFCQQYKDWPFTFGPGTKVEIK
no binding (tested: 1000 nM) | 1060 nM | 0.02 s⁻¹ | 19000 M⁻¹ s⁻¹ | C6.HL scFv-Fc protein (Fc fusion, HL: heavy-chain variable domain at the N-terminus; not shown: human IgG1 Fc moiety) QVQLVQSGAEVKKPGSSVKVSCKASGDTFSSNAISWVRQAPGQGLEWMGVIIPIFGTADYAQKFQGRVTITADESTSTAYMELSSLRSEDTAVYYCARHTYHEYAGGYYGGAMDPWGQGTLVTVSSGGGGSGGGGSGGGGSGGGGSELQSVLTQPPSASGTPGQRVTISCSGSSSNIGSNYVYWYQQLPGTAPKILIYRNNQRPSGVPDRFSGSKSGTSASLAISGLRSEDEADYYCAAWDDNLSGWVFGTGTKLTVL
no binding (tested: 1000 nM) | 225 nM | 0.053 s⁻¹ | 230000 M⁻¹ s⁻¹ | 30D8.HL scFv-Fc protein (Fc fusion, HL: heavy-chain variable domain at the N-terminus; not shown: human IgG1 Fc moiety) EVQLVESGGGLVKPGGSLRLSCEASGFTFSDAWMSWVRQAPGKGLEWVGRIKSKTDGGTTDYVVPLNGRFIISRDDSRNTLYLQLNNLKTEDTAVYYCTTVPGSYGYWGQGTLVTVSSGGGGSGGGGSGGGGSGGGGSDIVMTQSPLSLPVTPGEPASISCRSSQSLLHNKRNNYLDWFLQKPGQSPQLLIYLASNRASGVPDRFSGGGSGTDFTLKISRVEAEDVGVYYCMQAQQTPITFGQGTRLEIK
no binding (tested: 1000 nM) | 24.5 nM | 0.0012 s⁻¹ | 47000 M⁻¹ s⁻¹ | 32A10.HL scFv-Fc protein (Fc fusion, HL: heavy-chain variable domain at the N-terminus; not shown: human IgG1 Fc moiety) QVTLKESGPVLVKPTETLTLTCTVSGFSLSNARMGVSWIRQPPGKALEWLAHIFSTDEKSIRRSLRSRLTLSKDTSKSQVVLTMTNMDPVDTATYFCARDSSNYEGYFDYWGQGTLVTVSSGGGGSGGGGSGGGGSGGGGSEVVMTQSPATLSVSPGERVTLSCRASQSVSSNFAWYQQRPGQAPRLLLYGATTRATGLPGRFSGSGSGTENILTISSLQSEDFAIYFCQQYKDWPFTFGPGSKVDIK
